Earlier results as cited in paper PMC2742733.

Target: TEM-8 (Homo sapiens) (UniProt Q9H6X2)

## Protective antigen (PA) (from UniProt P13423)
  Kd: 130 nM
